Reference: US20160263155A1, “T CELL RECEPTORS DIRECTED AGAINST THE PREFERENTIALLY EXPRESSED ANTIGEN OF MELANOMA AND USES THEREOF” (LEIDEN UNIVERSITY MEDICAL CENTER, priority 2015, published 2016)
Positions count from the first letter of the chain named. Names may count otherwise.

B1: ^402GCFNF^406ISAQT: Caspase-9 homodimerization domain mutant (SEQ ID NOS 95 and 96) (Casp-10) (protein, UniProt P55211 1-416, looked up, variant G402I C403S F404A N405Q F406T)
chain: MDEADRRLLRRCRLRLVEELQVDQLWDALLSRELFRPHMIEDIQRAGSGSRRDQARQLIIDLETRGSQALPLFISCLEDTGQDMLASFLRTNRQAAKLSKPTLENLTPVVLRPEIRKPEVLRPETPRPVDIGSGGFGDVGALESLRGNADLAYILSMEPCGHCLIINNVNFCRESGLRTRTGSNIDCEKLRRRFSSLHFMVEVKGDLTAKKMVLALLELAQQDHGALDCCVVVILSHGCQASHLQFPGAVYGTDGCPVSVEKIVNIFNGTSCPSLGGKPKLFFIQACGGEQKDHGFEVASTSPEDESPGSNPEPDATPFQEGLRTFDQLDAISSLPTPSDIFVSYSTFPGFVSWRDPKSGSWYVETLDDIFEQWAHSEDLQSLLLRVANAVSVKGIYKQMPISAQTLRKKLFFKTS
B2: N405Qco: Caspase-9 mutant (protein, UniProt P55211 1-416, looked up, variant N405Q)
chain: B1 chain with I402G, S403C, A404F, T406F
modifications: codon-optimized
notes: Caspase-9 mutant
B3: N405Q-T3175 (protein, UniProt P55211 1-416, looked up, variant N405Q T317S)
chain: B1 chain with T317S, I402G, S403C, A404F, T406F
B4: N405Q (protein)
chain: GFGDVGALESLRGNADLAYILSMEPCGHCLIINNVNFCRESGLRTRTGSNIDCEKLRRRFSSLHFMVEVKGDLTAKKMVLALLELAQQDHGALDCCVVVILSHGCQASHLQFPGAVYGTDGCPVSVEKIVNIFNGTSCPSLGGKPKLFFIQACGGEQKDHGFEVASTSPEDESPGSNPEPDATPFQEGLRTFDQLDAISSLPTPSDIFVSYSTFPGFVSWRDPKSGSWYVETLDDIFEQWAHSEDLQSLLLRVANAVSVKGIYKQMPGCFQFLRKKLFFKTS
B5: F404Y (protein)
chain: B4 chain with F270Y, Q271N
B6: F404T (protein)
chain: B4 chain with F270T, Q271N
B7: D330E (protein)
chain: B4 chain with D196E, Q271N
B8: S307A (protein)
chain: B4 chain with S173A, Q271N
B9: D330A-S144A (protein)
chain: B4 chain with S10A, D196A, Q271N
B10: D330A (protein)
chain: B4 chain with D196A, Q271N
B11: D330V (protein)
chain: B4 chain with D196V, Q271N
B12: D330G (protein)
chain: B4 chain with D196G, Q271N
B13: T317A (protein)
chain: B4 chain with T183A, Q271N
B14: F406W (protein)
chain: B4 chain with Q271N, F272W
B15: S183A (protein)
chain: B4 chain with S49A, Q271N
B16: D330A-S144D (protein)
chain: B4 chain with S10D, D196A, Q271N
B17: S195A (protein)
chain: B4 chain with S61A, Q271N
B18: S196A (protein)
chain: B4 chain with S62A, Q271N
B19: D330A-S183A (protein)
chain: B4 chain with S49A, D196A, Q271N
B20: F406Y (protein)
chain: B4 chain with Q271N, F272Y
B21: N405Q-S196D (protein)
chain: B4 chain with S62D
B22: D330N (protein)
chain: B4 chain with D196N, Q271N
B23: N405Q-S144A (protein)
chain: B4 chain with S10A
B24: N405Q-S144D (protein)
chain: B4 chain with S10D
B25: D330S (protein)
chain: B4 chain with D196S, Q271N
B26: L329E (protein)
chain: B4 chain with L195E, Q271N
B27: D330A-N405Q (protein)
chain: B4 chain with D196A
B28: D330A-S196A (protein)
chain: B4 chain with S62A, D196A, Q271N
B29: F406A (protein)
chain: B4 chain with Q271N, F272A
B30: N405Q-T317Sco (protein, UniProt P55211 1-416, looked up, variant N405Q T317S)
chain: B1 chain with T317S, I402G, S403C, A404F, T406F
B31: N405Q-S144Aco (protein, UniProt P55211 1-416, looked up, variant N405Q S144A)
chain: B1 chain with S144A, I402G, S403C, A404F, T406F
modifications: codon optimized

System: chimeric Caspase-9 polypeptide
Test: Caspase mutant classes and basal activity (Table 3)
Type: cell-based, human
Conditions: class heading of Table 3

chimeric Caspase-9 polypeptide, sequence (as listed by the source, change not shown): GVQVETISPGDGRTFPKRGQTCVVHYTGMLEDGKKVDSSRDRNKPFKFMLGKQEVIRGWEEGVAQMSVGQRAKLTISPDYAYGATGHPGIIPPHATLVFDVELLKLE

| Molecule | Basal Activity |
| --- | --- |
| B1 | Decreased |
| B2 | Decreased |
| B3 | Decreased |
| B4 | Decreased |
| B5 | Decreased |
| B6 | Decreased |
| B7 | Decreased |
| B8 | Decreased |
| B9 | Decreased |
| B10 | Decreased |
| B11 | Decreased |
| B12 | Decreased |
| B13 | Decreased |
| B14 | Decreased |
| B15 | Decreased |
| B16 | Decreased |
| B17 | Decreased |
| B18 | Decreased |
| B19 | Decreased |
| B20 | Decreased |
| B21 | Decreased |
| B22 | Decreased |
| B23 | Decreased |
| B24 | Decreased |
| B25 | Decreased |
| B26 | Decreased |
| B27 | Decreased |
| B28 | Decreased |
| B29 | Decreased |

Same assay, conditions: class heading of Table 3; ligand IC50

| Molecule | IC50 |
| --- | --- |
| B1 | higher IC50 |
| B2 | higher IC50 |
| B3 | higher IC50 |
| B4 | higher IC50 |
| B5 | higher IC50 |
| B6 | much higher |
| B7 | higher IC50 |
| B8 | much higher |
| B9 | higher IC50 |
| B10 | higher IC50 |
| B11 | higher IC50 |
| B12 | higher IC50 |
| B13 | higher IC50 |
| B14 | higher IC50 |
| B15 | higher IC50 |
| B16 | higher IC50 |
| B17 | higher IC50 |
| B18 | higher IC50 |
| B19 | higher IC50 |
| B20 | higher IC50 |
| B21 | higher IC50 |
| B22 | higher IC50 |
| B23 | higher IC50 |
| B24 | higher IC50 |
| B25 | higher IC50 |
| B26 | higher IC50 |
| B27 | higher IC50 |
| B28 | higher IC50 |
| B29 | higher IC50 |

Same assay, conditions: class heading of Table 3; marked *, predicted

| Molecule | Basal Activity |
| --- | --- |
| B30 | Decreased |
| B31 | Decreased |
